From the supplement of paper PMC10266784

B1: library; numbered along this chain (parent)
chain: MAAAAAAAAEQQSSNGPVKKSMREKAVERRSVNKEHNSNFKAGYIPIDEDRLHKTGLRGRKGNLAICVIILLFILAVINLIITLVIWAVIRIGPNGCDSMEFHESGLLRFKQVSDMGVIHPLYKSTVGGRRNENLVITGNNQPIVFQQGTTKLSVENNKTSITSDIGMQFFDPRTQNILFSTDYETHEFHLPSGVKSLNVQKASTERITSNATSDLNIKVDGRAIVRGNEGVFIMGKTIEFHMGGNMELKAENSIILNGSVMVSTTRLPSSSSGDQLGSGDWVRYKLCMCADGTLFKVQVTSQNMGCQISDNPCGNTH

Variants of: B1
Assay: SGCB cell-surface expression functional score (HA stain, bin4 vs bin1, normalised to synonymous) (log10 ratio); higher = more cell-surface SGCB (functional)
Experimental: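 Deep mutational scan of full-length human SGCB (YFP-SGCB-HA, NNN codon sublibraries A-F) delivered by lentivirus at low MOI into ADG-HEK293 cells stably expressing SGCA, SGCD and SGCG. YFP-positive cells were stained for surface HA on unpermeabilized cells and FACS-sorted into bins. The functional score is log10(frequency in high bin 4 / frequency in low bin 1), normalised per chunk so that synonymous variants have mean 0 and SD 0.5. Scores are the median over codons and over duplicate biological replicates; scores below -0.5 are called non-functional. Scale: negative means deleterious.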

SGCB cell-surface expression functional score (log10): each site, then its substitutions
S105: R -0.4; F -0.75; I -0.75; N -0.63; A -0.09; E -0.29; G -0.15; Q -0.11; L -0.66; Y 0.11; W 0.26; D 0.04; P -1.03; M -0.33; V -0.62; H 0; T -0.09; C -0.21; K -0.5
D98: Y -0.66; L 0.1; H 0.4; M 0.01; T 0.06; V -0.14; I -1; N -0.3; W -0.73; R -0.16; F -0.64; A 0.32; G -0.2; K -0.4; E -0.21; C -0.07; Q -0.02; P -0.12; S 0.3
E101: K -0.77; W -1.04; A -0.15; T -0.54; F -0.8; S -0.39; H -1.14; C -1.14; L -0.35; D -0.49; R -0.59; I -0.3; M -0.63; G -0.26; Q -0.15; V -0.43; P -1.78; N -1.22; Y -0.43
I92: V -0.31; Y -2.16; W -2.43; P -1.96; D -2.38; L -0.39; R -1.46; M -0.21; H -1.9; K -1.31; T -1.03; F -0.74; Q -1.97; S -2.23; E -2.15; N -1.68; G -0.75
R109: E -0.02; G -0.81; L -0.1; D -0.93; F -0.2; N -1.22; H -0.61; P -1.41; I -0.04; M -0.41; C -0.5; K -0.59; A -0.33; Q -0.31
M100: I -0.14; V -0.03; D -1.82; W -1.82; H -1.39; P -2.03; C -1.81; Q -1.26; G -1.04; A -1.33; N -2.37; S -2.02; F -0.46; T -1.55; R -1.19; E -1.92; K -2.02; Y -2.14
E104: P 0.47; F -0.24; Y 0.03; A 0.22; K 0.13; D 0.17; V 0; M 0.11; W -0.09; S 0.39; C 0.35; L -0.18; T 0.51; H 0.28; I 0.01; N -0.11; Q 0.18; R 0.26; G -0.1
N95: H -1.18; P -1.26; D -0.24; W 0.34; K 0.16; E 0.05; I -0.83; R -0.09; V -0.38; F 0.3; G 0.21; L -0.06; T -0.1; S 0.16; Y 0.15; A 0.01; Q -0.12; M 0.68; C -0.17
P94: L -0.17; D -1.08; A 0.03; V -0.24; K 0.29; M 0.27; S -0.11; Y 0.29; Q 0.21; N -0.88; F 0.24; H 0.01; T -0.07; R -0.65; W 0.26; C -0.07; E -0.29; I -0.61; G -0.25
F102: Y -1.16; D -0.88; T -1.16; R -1.14; Q -1.39; A -1.01; I -1.26; P -1.4; M -0.45; G -0.51; H 0.01; L -0.5; K -1.02; S -1.18; C -1.3; V -1.57; N -1.53; E -1.93; W -0.12
L107: P -0.47; Y -0.27; T -0.34; K -0.53; W -0.39; V -0.21; M 0.24; N -0.13; S -0.46; G -0.26; F -0.29; Q 0; R -0.36; D -0.74; I 0.27; E -1.14; C 0.24; A -0.67; H -0.67
C97: Y -1.89; K -1.3; E -1.87; W -1.46; I 0.31; Q -1.14; A -0.14; N -1.16; G -1.91; F -1.5; S -0.18; V 0.16; P -0.47; H -2.29; M -0.29; L 0.37; D -2.33; R -1.75; T -0.03
L108: I 0.03; T 0; Y -1.74; P -1.13; E -1.58; G -0.9; A -0.07; W -0.215; M 0.07; R -1.09; V -0.08; N -2.59; S -0.5; H -0.95; F -1.87; C 0.01; K -1.85; D -1.53; Q -1.27
G106: T -0.86; D -0.65; M -0.94; F -1.86; E -0.58; L -1.62; W -0.87; I -1.82; Q -1.48; R -0.35; P -1.85; C -1.9; N -0.38; K -0.63; V -1.47; S -0.78; H -0.43; A -0.24; Y -1.15
S99: G -0.07; Y 0.12; N -0.77; F 0.86; L 0.18; W -0.35; D -1.16; E -1.96; A -0.01; P -0.38; M 0.21; Q -2.34; H -0.65; R -1.61; I -0.54; T -0.4; K -1.57; C -0.72; V 0.15
H103: P -0.42; F -0.14; A 0.32; K -0.02; N 0.13; C -0.1; G 0.07; Q 0.36; S 0.06; R 0.14; T 0.65; I -0.36; Y -0.3; W 0.06; V 0.29; D 0; L 0.33; E -0.33; M -0.23
G96: P -1.62; A -1.24; F -2.5; Q -2.14; I -1.54; T -1.72; Y -2.29; R -1.51; N -2.04; K -2.21; M -1.68; E -1.89; L -2.08; W -0.61; C -1.66; V -1.95; D -2.13; S -1.81; H -1.77
G93: L -1.84; C -1.43; P -1.64; N -0.14; H 0.32; D -0.19; K -0.15; Q -0.8; R -0.4; I -2.15; T 0.23; E -1.2; W -0.45; M -1.49; Y -1.86; A -0.97; F -1.18; V -1.79; S -0.25
